T1: recombinant human IDO2 protein (human, UniProt Q6ZQW0 1-407, limits assumed)
T1 construct: also called human Indoleamine 2,3-Dioxygenase 2; human IDO2 recombinant protein
T1 sequence: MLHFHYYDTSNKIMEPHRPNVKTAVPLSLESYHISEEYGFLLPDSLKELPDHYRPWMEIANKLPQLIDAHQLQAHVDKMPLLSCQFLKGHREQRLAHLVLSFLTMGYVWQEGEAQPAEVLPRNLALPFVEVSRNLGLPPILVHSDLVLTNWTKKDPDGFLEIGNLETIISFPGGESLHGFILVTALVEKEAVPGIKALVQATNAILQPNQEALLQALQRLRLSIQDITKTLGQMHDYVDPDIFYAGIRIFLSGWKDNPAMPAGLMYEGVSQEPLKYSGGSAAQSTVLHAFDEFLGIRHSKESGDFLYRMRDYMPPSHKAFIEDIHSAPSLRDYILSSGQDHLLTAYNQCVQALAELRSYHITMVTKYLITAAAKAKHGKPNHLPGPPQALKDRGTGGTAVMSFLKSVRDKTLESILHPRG

B1: anti-human IDO2 monoclonal antibody 18-1 (antibody, V domains shown)
VH: QVRLQQPGAELVKPGASVKLSCKASGYTFTSYWMHWVKQRPGQGLEWIGEINPSTGRTNYNERFRSKATLTVDKFSTTAYMQFSSLTSEDSAVYYCVGLRFAYWGQGTLVSVSA
VL: DVVMTQTPLSLPVSFGDQVSISCRSSQSLADSYGNTYLSWYLHKPGQSPQLLIYGISNRFSGVPDRFSGSGSGTDFTLKISTIKPEDLGMYYCLQGTHQPLTFGAGTKLELKR
notes: Mouse hybridoma antibody; It was detected with an anti-mouse IgG Fc-specific secondary antibody; also called mAb 18-1

Experiments:
[1] = target: B1; test: competitive ELISA; soluble peptide titrated against 1 µg/ml mAb in solution; competitor: coated recombinant human IDO2 (100 ng); plate-bound mAb detected with anti-mouse IgG Fc HRP and ABTS
Description: FIGS. 2A and 2B show results of a competitive ELISA that was developed to test the specificity of the antibodies. 100 ng of the recombinant human IDO2 protein was used to coat the ELISA plate. A constant amount (1 μg/ml) of IDO2 antibody was incubated in solution with specified concentrations of soluble peptide. If the antibody interacted with the soluble peptide, the antibody was then unavailable to bind the coated antigen. Anti-IDO2 Ig that bound the fixed protein was detected with an anti-mouse IgG FC-specific HRP secondary antibody and ABTS substrate. Data is presented as Mean±SD. […] FIG. 2A is a graph of a competitive ELISA comparing the recognition of the three anti-human IDO2 mAbs of FIG. 1 to the human epitope, plotting absorbance vs. epitope peptide concentration. FIG. 2B is a graph of a competitive ELISA comparing the recognition of the three anti-human IDO2 mAbs of FIG. 1 to the mouse epitope, plotting absorbance vs. epitope peptide concentration.
A competitive ELISA was developed to test the specificity of the antibodies. 100 ng of the recombinant human IDO2 protein was used to coat the ELISA plate. A constant amount (1 μg/ml) of IDO2 antibody was incubated in solution with specified concentrations of soluble peptide. […] Anti-IDO2 Ig that bound the fixed protein was detected with an anti-mouse IgG FC-specific HRP secondary antibody and ABTS substrate.

[2] = target: T1, recombinant human IDO2 protein; test: ELISA; plate coated with 100 ng recombinant human IDO2; detection with anti-mouse IgG Fc-specific HRP and ABTS
Description: (§1) FIG. 1 is a graph showing the binding curves of three anti-human IDO2 monoclonal antibodies 13-3, 18-1 and 20-10 described herein and their binding concentrations vs. human IDO2 recombinant protein. Three cloned hybridomas were generated against the human IDO2 amino acids #331-351 (NP 919270; SEQ ID NO: 23). ELISA analysis compares the binding of the anti-human IDO2 antibodies (mAbs) to recombinant human IDO2 protein (100 ng of recombinant human IDO2 protein was used to coat the ELISA plate). Increasing concentrations of mAb were incubated with the coated protein and anti-IDO2 Ig that bound the fixed protein was detected with an anti-mouse IgG Fc-specific HRP secondary antibody and ABTS substrate. Data is presented as Mean±SD.
as §1, with “Three” for “FIG. 1 is a graph showing the binding curves of three anti-human IDO2 monoclonal antibodies 13-3, 18-1 and 20-10 described herein and their binding concentrations vs. human IDO2 recombinant protein. Three”, “substrate.” for “substrate. Data is presented as Mean±SD.”

[3] = target: T2, human IDO1 with V5 tag, expressed in T-REx cells (human, UniProt P14902 1-403); test: Western blot of T-REx cell extracts; HRP secondary antibody, chemiluminescence
T2 construct: Cell extract fractionated for the Western blot; not shown: V5 tag
T2 sequence (P14902 whole entry): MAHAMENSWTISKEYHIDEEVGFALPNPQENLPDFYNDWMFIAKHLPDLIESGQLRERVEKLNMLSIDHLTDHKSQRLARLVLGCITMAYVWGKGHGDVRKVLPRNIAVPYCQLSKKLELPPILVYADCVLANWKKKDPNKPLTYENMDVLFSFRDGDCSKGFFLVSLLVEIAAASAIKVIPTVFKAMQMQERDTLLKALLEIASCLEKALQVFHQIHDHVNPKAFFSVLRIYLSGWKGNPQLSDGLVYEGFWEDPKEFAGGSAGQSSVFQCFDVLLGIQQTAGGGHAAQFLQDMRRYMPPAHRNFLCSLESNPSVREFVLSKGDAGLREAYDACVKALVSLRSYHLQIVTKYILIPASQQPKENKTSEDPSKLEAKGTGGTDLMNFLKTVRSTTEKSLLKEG
Description: (§2) FIG. 3 is a Western blot analysis using IDO-expressing Tᵣₑₓ cells. All IDO expressed proteins mouse and human IDO 1 and IDO2 contain a V5 tag. […] Cell extracts for IDO expressing cells or the parental T-REX line were prepared and fractionated as previously described (PMID: 17671174 & 26717206). Detection of indicated proteins was done using standard blotting methods, HRP conjugated secondary antibodies and chemiluminescence detection reagents.
as §2, with “A” for “FIG. 3 is a”, “analysis was conducted” for “analysis”, “containing” for “contain”, “(See US2019/0062452, incorporated by reference herein).” for “(PMID: 17671174 & 26717206).”

[4] = target: T3, mouse IDO1 with V5 tag, expressed in T-REx cells (mouse, UniProt P28776 1-407); test: as above
T3 construct: Cell extract fractionated for the Western blot; also called murine IDO1; not shown: V5 tag
T3 sequence (P28776 whole entry): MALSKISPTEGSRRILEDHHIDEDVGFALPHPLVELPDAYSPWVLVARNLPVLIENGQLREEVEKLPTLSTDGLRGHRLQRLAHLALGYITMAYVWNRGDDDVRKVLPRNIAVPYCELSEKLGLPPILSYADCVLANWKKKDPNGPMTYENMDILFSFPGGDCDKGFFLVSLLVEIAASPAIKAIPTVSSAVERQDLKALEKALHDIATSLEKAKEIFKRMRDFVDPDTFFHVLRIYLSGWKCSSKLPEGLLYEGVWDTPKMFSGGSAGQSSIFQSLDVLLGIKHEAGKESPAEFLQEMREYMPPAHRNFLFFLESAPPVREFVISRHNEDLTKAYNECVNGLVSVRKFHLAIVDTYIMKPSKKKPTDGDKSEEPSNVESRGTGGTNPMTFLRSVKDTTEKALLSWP
Description: as §2
as §2, with “A” for “FIG. 3 is a”, “analysis was conducted” for “analysis”, “containing” for “contain”, “(See US2019/0062452, incorporated by reference herein).” for “(PMID: 17671174 & 26717206).”

IC50 (read off the curve) [1] [µM]	EC50 (read off the curve) [2] [µg/mL]	binding result [3]	binding result [4]	Binder
~7				RDYILSSGQDHLLTAYNQCVQ (also called hIDO2 Peptide) [Human Epitope]
~9				RDYILASGPGDCLMAYNQCVE [murine IDO2 epitope peptide (amino acids 331-351 of murine IDO2)]
	~0.01	no binding	no binding	anti-human IDO2 monoclonal antibody 13-3 (antibody, V domains shown, Mouse hybridoma antibody raised against human IDO2 amino acids 331-351; It was detected with an anti-mouse IgG Fc-specific secondary antibody; also called mAb 13-3) VH: QVRLQQPGAELVKPGASVKLSCKASGYTFTSYWMHWVKQRPGQGLEWIGEINPSTGRTNYNERFRSKATLTVDKFSTTAYMQFSSLTSEDSAVYYCVGLRFAYWGQGTLVSVSA VL: DVVMTQTPLSLPVSFGDQVSISCRSSQSLADSYGNTYLSWYLHKPGQSPQLLIYGISNRFSGVPDRFSGSGSGTDFTLKISTIKPEDLGMYYCLQGTHQPLTFGAGTKLELKR
	~0.02	no binding	no binding	anti-human IDO2 monoclonal antibody 20-10 (antibody, V domains shown, Mouse hybridoma antibody; It was detected with an anti-mouse IgG Fc-specific secondary antibody; also called mAb 20-10) VH: QVRLQQPGAELVKPGASVKLSCKASGYTFTSYWMHWVKQRPGQGLEWIGEINPSTGRTNYNERFRSKATLTVDKFSTTAYMQFSSLTSEDSAVYYCVGLRFAYWGQGTLVSVSA VL: DVVMTQTPLSLPVSFGDQVSISCRSSQSLADSYGNTYLSWYLHKPGQSPQLLIYGISNRFSGVPDRFSGSGSGTDFTLKISTIKPEDLGMYYCLQGTHQPLTFGAGTKLELKR
	~0.02	no binding	no binding	B1

Reference: patent US20230242674A1 (LANKENAU INSTITUTE FOR MEDICAL RESEARCH, published 2023)
